Tests used:
Experiment in all cases: […]; 5 mM HEPES pH 7.5, 80 mM KCl, 20 °C; […]
Conditions in all cases: both partners purified
[1] = target: T1, SARS-CoV-2 N protein residues 49–364 (SARS-CoV-2, UniProt P0DTC9 49-364)
T1 construct: also called N^49–364

[2] = target: T2, SARS-CoV-2 N protein residues 49–419 (SARS-CoV-2, UniProt P0DTC9 49-419)
T2 construct: also called N^49–419

[3] = target: T3, SARS-CoV-2 N protein residues 1–364 (SARS-CoV-2, UniProt P0DTC9 1-364)
T3 construct: also called N^1–364

Measured: binding result

B1: soluble C-terminal domain of SARS-CoV-2 membrane (M) protein (aa 104–222 of 222) fused to GFP (domain or fragment)
chain: ARTRSMWSFNPETNILLNVPLHGTILTRPLLESELVIGAVILRGHLRIAGHHLGRCDIKDLPKEITVATSRTLSYYKLGASQRVAGDSGFAAYSRYRIGNYKLNTDHSSSSDNIALLVQ
notes: also called GFP-M^104–222
binds: all assays above
